Reference: the supplement of paper PMC11316812
± gives the standard deviation of the averaged measurements.

Key:
[1] = system: MCF7; experiment: percentage of EdU-negative (G0-arrested) nuclei per well, 72 h; higher = more G0 arrest; conditions: reference: sequence is the full UniProt precursor, the tested protein was the secreted form or ectodomain
[2] = system: hTERT-HMEC; experiment: as above; conditions: reference: sequence is the full UniProt precursor, the tested protein was the secreted form or ectodomain
[3] = protein concentration 0.03125 µM
[4] = protein concentration 0.3125 µM
[5] = protein concentration 0.0283425 µM
[6] = protein concentration 0.283425 µM
[7] = protein concentration 0.0225 µM
[8] = protein concentration 0.01375 µM
[9] = protein concentration 0.1375 µM
[10] = protein concentration 0.01525 µM
[11] = protein concentration 0.1525 µM
[12] = protein concentration 0.00925 µM
[13] = protein concentration 0.0925 µM
[14] = protein concentration 0.018565 µM
[15] = protein concentration 0.18565 µM
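Further: secreted proteins added to cultured cells, EdU pulse at the end, nuclei found by Hoechst imaging, EdU status from nuclear versus surrounding ring intensity ratio, PBS as neutral control.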

MSERKEGRGKGKGKKKERGSGKKPESAAGSQSPALPPRLKEMKSQESAAGSKLVLRCETSSEYSSLRFKWFKNGNELNRKNKPQNIKIQKKPGKSELRINKASLADSGEYMCKVISKLGNDSASANITIVESNEIITGMPASTEGAYVSSESPIRISVSTEGANTSSSTSTSTTGTSHLVKCAEKEKTFCVNGGECFMVKDLSNPSRYLCKCQPGFTGARCTENVPMKVQNQEKAEELYQKRVLTITGICIALLVVGIMCVVAYCKTKKQRKKLHDRLRQSLRSERNNMMNIANGPHHPNPPPENVQLVNQYVSKNVISSEHIVEREAETSFSTSHYTSTAHHSTTVTQTPSHSWSNGHTESILSESHSVIVMSSVENSRHSSPTGGPRGRLNGTGGPRECNSFLRHARETPDSYRDSPHSERYVSAMTTPARMSPVDFHTPSSPKSPPSEMSPPVSSMTVSMPSMAVSPFMEEERPLLLVTPPRLREKKFDHHPQQFSSFHHNPAHDSNSLPASPLRIVEDEEYETTQEYEPAQEPVKKLANSRRAKRTKPNGHIANRLEVDSNTSSQSSNSESETEDERVGEDTPFLGIQNPLAASLEATPAFRLADSRTNPAGRFSTQEEIQARLSSVIANQDPIAV
percentage of EdU-negative [1, 3]: 23.8 ± 3.8% | percentage of EdU-negative [1, 4]: 24.8 ± 0.83% | percentage of EdU-negative [2, 3]: 4.23 ± 0.16% | percentage of EdU-negative [2, 4]: 4.694 ± 0.041%

MSEVPVARVWLVLLLLTVQVGVTAGAPWQCAPCSAEKLALCPPVSASCSEVTRSAGCGCCPMCALPLGAACGVATARCARGLSCRALPGEQQPLHALTRGQGACVQESDASAPHAAEAGSPESPESTEITEEELLDNFHLMAPSEEDHSILWDAISTYDGSKALHVTNIKKWKEPCRIELYRVVESLAKAQETSGEEISKFYLPNCNKNGFYHSRQCETSMDGEAGLCWCVYPWNGKRIPGSPEIRGDPNCQIYFNVQN
percentage of EdU-negative [1, 5]: 24.4 ± 0.48% | percentage of EdU-negative [1, 6]: 29.6 ± 4% | percentage of EdU-negative [2, 5]: 5.41 ± 0.56% | percentage of EdU-negative [2, 6]: 9.21 ± 1.1%

MSFPCKFVASFLLIFNVSSKGAVSKEITNALETWGALGQDINLDIPSFQMSDDIDDIKWEKTSDKKKIAQFRKEKETFKEKDTYKLFKNGTLKIKHLKTDDQDIYKVSIYDTKGKNVLEKIFDLKIQERVSKPKISWTCINTTLTCEVMNGTDPELNLYQDGKHLKLSQRVITHKWTTSLSAKFKCTAGNKVSKESSVEPVSCPEKGLDIYLIIGICGGGSLLMVFVALLVFYITKRKKQRSRRNDEELETRAHRVATEERGRKPHQIPASTPQNPATSQHPPPPPGHRSQAPSHRPPPPGHRVQHQPQKRPPAPSGTQVHQQKGPPLPRPRVQPKPPHGAAENSLSPSSN
percentage of EdU-negative [1, 7]: 24.6 ± 0.84% | percentage of EdU-negative ([1]; protein concentration 0.225 µM): 26.8 ± 0.55% | percentage of EdU-negative [2, 7]: 5.27 ± 1.3% | percentage of EdU-negative ([2]; protein concentration 0.225 µM): 5.92 ± 0.1%

MSGAPTAGAALMLCAATAVLLSAQGGPVQSKSPRFASWDEMNVLAHGLLQLGQGLREHAERTRSQLSALERRLSACGSACQGTEGSTDLPLAPESRVDPEVLHSLQTQLKAQNSRIQQLFHKVAQQQRHLEKQHLRIQHLQSQFGLLDHKHLDHEVAKPARRKRLPEMAQPVDPAHNVSRLHRLPRDCQELFQVGERQSGLFEIQPQGSPPFLVNCKMTSDGGWTVIQRRHDGSVDFNRPWEAYKAGFGDPHGEFWLGLEKVHSITGDRNSRLAVQLRDWDGNAELLQFSVHLGGEDTAYSLQLTAPVAGQLGATTVPPSGLSVPFSTWDQDHDLRRDKNCAKSLSGGWWFGTCSHSNLNGQYFRSIPQQRQKLKKGIFWKTWRGRYYPLQATTMLIQPMAAEAAS [Q9BY76]
percentage of EdU-negative [1, 8]: 23.9 ± 1.8% | percentage of EdU-negative [1, 9]: 27.4 ± 1.9% | percentage of EdU-negative [2, 8]: 5.28 ± 0.74% | percentage of EdU-negative [2, 9]: 6.14 ± 0.59%

MSGGHQLQLAALWPWLLMATLQAGFGRTGLVLAAAVESERSAEQKAIIRVIPLKMDPTGKLNLTLEGVFAGVAEITPAEGKLMQSHPLYLCNASDDDNLEPGFISIVKLESPRRAPRPCLSLASKARMAGERGASAVLFDITEDRAAAEQLQQPLGLTWPVVLIWGNDAEKLMEFVYKNQKAHVRIELKEPPAWPDYDVWILMTVVGTIFVIILASVLRIRCRPRHSRPDPLQQRTAWAISQLATRRYQASCRQARGEWPDSGSSCSSAPVCAICLEEFSEGQELRVISCLHEFHRNCVDPWLHQHRTCPLCMFNITEGDSFSQSLGPSRSYQEPGRRLHLIRQHPGHAHYHLPAAYLLGPSRSAVARPPRPGPFLPSQEPGMGPRHHRFPRAAHPRAPGEQQRLAGAQHPYAQGWGLSHLQSTSQHPAACPVPLRRARPPDSSGSGESYCTERSGYLADGPASDSSSGPCHGSSSDSVVNCTDISLQGVHGSSSTFCSSLSSDFDPLVYCSPKGDPQRVDMQPSVTSRPRSLDSVVPTGETQVSSHVHYHRHRHHHYKKRFQWHGRKPGPETGVPQSRPPIPRTQPQPEPPSPDQQVTRSNSAAPSGRLSNPQCPRALPEPAPGPVDASSICPSTSSLFNLQKSSLSARHPQRKRRGGPSEPTPGSRPQDATVHPACQIFPHYTPSVAYPWSPEAHPLICGPPGLDKRLLPETPGPCYSNSQPVWLCLTPRQPLEPHPPGEGPSEWSSDTAEGRPCPYPHCQVLSAQPGSEEELEELCEQAV [Q68DV7]
percentage of EdU-negative ([1]; protein concentration 0.032 µM): 24.9 ± 1% | percentage of EdU-negative ([1]; protein concentration 0.32 µM): 23.5 ± 1.3% | percentage of EdU-negative ([2]; protein concentration 0.032 µM): 4.69 ± 0.58% | percentage of EdU-negative ([2]; protein concentration 0.32 µM): 4.96 ± 0.2%

MSGGRAPAVLLGGVASLLLSFVWMPALLPVASRLLLLPRVLLTMASGSPPTQPSPASDSGSGYVPGSVSAAFVTCPNEKVAKEIARAVVEKRLAACVNLIPQITSIYEWKGKIEEDSEVLMMIKTQSSLVPALTDFVRSVHPYEVAEVIALPVEQGNFPYLQWVRQVTESVSDSITVLP
percentage of EdU-negative [1, 7]: 25.3 ± 1.7% | percentage of EdU-negative ([1]; protein concentration 0.225 µM): 25.2 ± 1.5% | percentage of EdU-negative [2, 7]: 4.5 ± 0.32% | percentage of EdU-negative ([2]; protein concentration 0.225 µM): 5.97 ± 0.34%

MSGPGTAAVALLPAVLLALLAPWAGRGGAAAPTAPNGTLEAELERRWESLVALSLARLPVAAQPKEAAVQSGAGDYLLGIKRLRRLYCNVGIGFHLQALPDGRIGGAHADTRDSLLELSPVERGVVSIFGVASRFFVAMSSKGKLYGSPFFTDECTFKEILLPNNYNAYESYKYPGMFIALSKNGKTKKGNRVSPTMKVTHFLPRL
percentage of EdU-negative [1, 10]: 27.2 ± 2.4% | percentage of EdU-negative [1, 11]: 28.58 ± 0.13% | percentage of EdU-negative [2, 10]: 5.05 ± 0.36% | percentage of EdU-negative [2, 11]: 5.7993 ± 0.0024%

MSILFYVIFLAYLRGIQGNNMDQRSLPEDSLNSLIIKLIQADILKNKLSKQMVDVKENYQSTLPKAEAPREPERGGPAKSAFQPVIAMDTELLRQQRRYNSPRVLLSDSTPLEPPPLYLMEDYVGSPVVANRTSRRKRYAEHKSHRGEYSVCDSESLWVTDKSSAIDIRGHQVTVLGEIKTGNSPVKQYFYETRCKEARPVKNGCRGIDDKHWNSQCKTSQTYVRALTSENNKLVGWRWIRIDTSCVCALSRKIGRT
percentage of EdU-negative [1, 12]: 25.37 ± 0.049% | percentage of EdU-negative [1, 13]: 27.3 ± 1.8% | percentage of EdU-negative [2, 12]: 4.75 ± 0.28% | percentage of EdU-negative [2, 13]: 6.72 ± 0.33%

MSISLSSLILLPIWINMAQIQQGGPDEKEKTTALKDLLSRIDLDELMKKDEPPLDFPDTLEGFEYAFNEKGQLRHIKTGEPFVFNYREDLHRWNQKRYEALGEIITKYVYELLEKDCNLKKVSIPVDATESEPKSFIFMSEDALTNPQKLMVLIHGSGVVRAGQWARRLIINEDLDSGTQIPFIKRAVAEGYGVIVLNPNENYIEVEKPKIHVQSSSDSSDEPAEKRERKDKVSKETKKRRDFYEKYRNPQREKEMMQLYIRENGSPEEHAIYVWDHFIAQAAAENVFFVAHSYGGLAFVELMIQREADVKNKVTAVALTDSVHNVWHQEAGKTIREWMRENCCNWVSSSEPLDTSVESMLPDCPRVSAGTDRHELTSWKSFPSIFKFFTEASEAKTSSLKPAVTRRSHRIKHEEL [Q8WUF8]
percentage of EdU-negative [1, 7]: 24.1 ± 1.1% | percentage of EdU-negative ([1]; protein concentration 0.225 µM): 24 ± 0.46% | percentage of EdU-negative [2, 7]: 4.387 ± 0.021% | percentage of EdU-negative ([2]; protein concentration 0.225 µM): 5.5592 ± 0.0051%

MSLMVVSMVCVGFFLLQGAWPHEGVHRKPSLLAHPGPLVKSEETVILQCWSDVRFQHFLLHREGKFKDTLHLIGEHHDGVSKANFSIGPMMQDLAGTYRCYGSVTHSPYQLSAPSDPLDIVITGLYEKPSLSAQPGPTVLAGESVTLSCSSRSSYDMYHLSREGEAHERRFSAGPKVNGTFQADFPLGPATHGGTYRCFGSFRDSPYEWSNSSDPLLVSVTGNPSNSWPSPTEPSSETGNPRHLHVLIGTSVVIILFILLLFFLLHRWCCNKKNAVVMDQEPAGNRTVNREDSDEQDPQEVTYAQLNHCVFTQRKITRPSQRPKTPPTDIIVYTELPNAEP
percentage of EdU-negative [1, 7]: 22.6 ± 0.43% | percentage of EdU-negative ([1]; protein concentration 0.225 µM): 26.6 ± 2.4% | percentage of EdU-negative [2, 7]: 5.55 ± 0.17% | percentage of EdU-negative ([2]; protein concentration 0.225 µM): 11.3 ± 1.1%

MSLRLDTTPSCNSARPLHALQVLLLLSLLLTALASSTKGQTKRNLAKGKEESLDSDLYAELRCMCIKTTSGIHPKNIQSLEVIGKGTHCNQVEVIATLKDGRKICLDPDAPRIKKIVQKKLAGDESAD
percentage of EdU-negative [1, 3]: 26.14 ± 0.19% | percentage of EdU-negative [1, 4]: 26.53 ± 0.004% | percentage of EdU-negative [2, 3]: 5.49 ± 1.9% | percentage of EdU-negative [2, 4]: 4.65 ± 0.1%

MSLSAFTLFLALIGGTSGQYYDYDFPLSIYGQSSPNCAPECNCPESYPSAMYCDELKLKSVPMVPPGIKYLYLRNNQIDHIDEKAFENVTDLQWLILDHNLLENSKIKGRVFSKLKQLKKLHINHNNLTESVGPLPKSLEDLQLTHNKITKLGSFEGLVNLTFIHLQHNRLKEDAVSAAFKGLKSLEYLDLSFNQIARLPSGLPVSLLTLYLDNNKISNIPDEYFKRFNALQYLRLSHNELADSGIPGNSFNVSSLVELDLSYNKLKNIPTVNENLENYYLEVNQLEKFDIKSFCKILGPLSYSKIKHLRLDGNRISETSLPPDMYECLRVANEVTLN
percentage of EdU-negative [1, 14]: 25.7 ± 0.65% | percentage of EdU-negative [1, 15]: 25.1 ± 0.99% | percentage of EdU-negative [2, 14]: 5.59 ± 1.8% | percentage of EdU-negative [2, 15]: 6.27 ± 1.2%
